Measured values reported in the supplement of paper PMC12338614.
± gives the uncertainty stated by the source.

B1: library; numbered along this chain (parent)
chain: MEVVDPQQLGMFTEGELMSVGMDTFIHRIDSTEVIYQPRRKRAKLIGKYLMGDLLGEGSYGKVKEVLDSETLCRRAVKILKKKKLRRIPNGEANVKKEIQLLRRLRHKNVIQLVDVLYNEEKQKMYMVMEYCVCGMQEMLDSVPEKRFPVCQAHGYFCQLIDGLEYLHSQGIVHKDIKPGNLLLTTGGTLKISDLGVAEALHPFAADDTCRTSQGSPAFQPPEIANGLDTFSGFKVDIWSAGVTLYNITTGLYPFEGDNIYKLFENIGKGSYAIPGDCGPPLSDLLKGMLEYEPAKRFSIRQIRQHSWFRKKHPPAEAPVPIPPSPDTKDRWRSMTVVPYLEDLHGADEDEDLFDIEDDIIYTQDFTVPGQVPEEEASHNGQRRGLPKAVCMNGTEAAQLSTKSRAEGRAPNPARKACSASSKIRRLSACKQQ

Variants of: B1
Test: STK11 functional score (HeLa growth suppression), rescaled enrichment; synonymous median = 1, nonsense median = 0 (normalised score)
Details: with HeLa; variant type: missense
Summary of the method: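 HeLa cells carrying an AAVS1 landing pad received codon-optimised STK11 libraries made by codon randomisation (POPCode), integrated by Bxb1, with three regions each transfected three times. Integrants that were BFP-negative and mCherry-positive were sorted by FACS 4–5 days after electroporation and then grown for about two weeks. Tiled amplicons from gDNA were sequenced on NextSeq at ~2 million reads per tile. The functional score is a wild-type-corrected log ratio of post- to pre-selection counts, rescaled to the synonymous and nonsense medians, merged across codons and replicate transfections, and given a bootstrapped error.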

| Variant | STK11 functional score |
| --- | --- |
| F264V | 0.678 ± 0.21 |
| C391I | 1.07 ± 0.38 |
| S421K | 1.45 ± 0.21 |
| S422N | 0.705 ± 0.48 |
| T249W | 0.0979 ± 0.1 |
| G381S | 1.36 ± 0.28 |
| E138L | 1.15 ± 0.22 |
| E138C | 0.386 ± 0.081 |
| L167D | -0.162 ± 0.094 |
| L167C | 1.13 ± 0.77 |
| Q214D | 1.33 ± 0.23 |
| P319L | 1.3 ± 0.17 |
| K178A | 0.756 ± 0.67 |
| E14D | 1.22 ± 0.3 |
| G276C | 1.2 ± 0.65 |
| Q302E | 0.957 ± 0.21 |
| A318T | 1.17 ± 0.67 |
| E376G | 1.18 ± 0.25 |
| D277N | 1.15 ± 0.65 |
| K269I | 1.28 ± 0.17 |
| S213A | 1.38 ± 0.49 |
| A398N | 1.15 ± 0.19 |
| L67R | 0.719 ± 0.45 |
| L386N | 0.528 ± 0.64 |

| Variant | STK11 functional score |
| --- | --- |
| P217S | 0.334 ± 0.13 |
| I88V | 0.87 ± 0.1 |
| Y272P | 1.38 ± 0.45 |
| Y272S | 0.837 ± 0.15 |
| I267P | 0.26 ± 0.21 |
| I267L | 0.603 ± 0.12 |
| I35E | 1.66 ± 0.16 |
| T363W | 1.19 ± 0.16 |
| R415F | 0.952 ± 0.52 |
| R415W | 1.5 ± 0.18 |
| H174S | 0.695 ± 0.29 |
| Y340F | 1.04 ± 0.49 |
| K235W | 1.51 ± 0.13 |
| K235H | 1.29 ± 0.19 |
| K124D | 0.919 ± 0.5 |
| A410T | 0.749 ± 0.21 |
| G288F | 0.357 ± 0.18 |
| K175T | 1.07 ± 0.18 |
| F231M | -0.0118 ± 0.18 |
| K416F | 0.683 ± 0.49 |
| R147F | 0.668 ± 0.1 |
| K78G | 0.0293 ± 0.084 |
| T13C | 1.59 ± 0.25 |
| A273T | 1.46 ± 0.34 |

| Variant | STK11 functional score |
| --- | --- |
| A417R | 1.6 ± 0.28 |
| M127D | 0.289 ± 0.08 |
| I356H | 1.51 ± 0.22 |
| C134Y | 1.15 ± 0.92 |
| C134E | 1.45 ± 0.2 |
| C134S | 1.49 ± 0.081 |
| Q37D | 1.4 ± 0.29 |
| K312M | 1.45 ± 0.19 |
| L184D | -0.0783 ± 0.1 |
| Y166A | 1.47 ± 0.24 |
| Y166P | 0.994 ± 0.26 |
| G47S | 1.62 ± 0.59 |
| E223T | 0.188 ± 0.086 |
| L282D | 1.26 ± 0.5 |
| L113D | -0.168 ± 0.12 |
| F354S | 1.34 ± 0.26 |
| K388P | 0.884 ± 0.37 |
| L344C | 1.12 ± 0.45 |
| E374Q | 0.822 ± 0.78 |
| M136N | -0.15 ± 0.087 |
| E98T | 0.259 ± 0.093 |
| W239H | 0.199 ± 0.11 |
| L117G | 0.823 ± 0.22 |
| N119G | 0.965 ± 0.23 |

| Variant | STK11 functional score |
| --- | --- |
| D68V | 0.366 ± 0.1 |
| T367L | 1.46 ± 0.18 |
| G270F | 1.14 ± 0.39 |
| L183F | 0.885 ± 0.55 |
| V66T | 1.12 ± 0.32 |
| A429Y | 1.49 ± 0.23 |
| P323K | 1.58 ± 0.15 |
| Q159C | 0.889 ± 0.35 |
| T71S | 0.618 ± 0.24 |
| N380H | 1.48 ± 0.38 |
| G268M | 0.465 ± 0.33 |
| D348R | 1.2 ± 0.26 |
| S307V | 1.34 ± 0.16 |
| Q382I | 1.31 ± 0.26 |
| Q382D | 1.47 ± 0.29 |
| N393Y | 1.51 ± 0.15 |
| F298I | 1.35 ± 0.61 |
| D194H | -0.252 ± 0.32 |
| I361V | 1.6 ± 0.24 |
| I29F | 0.117 ± 0.076 |
| H345R | 1.58 ± 0.15 |
| N94E | 0.862 ± 0.32 |
| Q371P | 1.3 ± 0.51 |
| L101P | 0.045 ± 0.083 |

| Variant | STK11 functional score |
| --- | --- |
| C158V | 0.897 ± 0.2 |
| L263A | 0.39 ± 0.12 |
| R106M | 1.59 ± 0.17 |
| Q7D | 1.33 ± 0.08 |
| R333V | 1.15 ± 0.64 |
| I111G | 0.385 ± 0.19 |
| L45I | 0.969 ± 0.33 |
| T244V | 1.15 ± 0.45 |
| T244Y | 0.127 ± 0.082 |
| V95L | 0.889 ± 0.12 |
| V150A | 0.104 ± 0.15 |
| V337L | 0.924 ± 0.13 |
| Y292W | 0.686 ± 0.12 |
| M392A | 1.56 ± 0.25 |
| M392R | 0.973 ± 0.31 |
| L85S | 1.29 ± 0.17 |
| L85A | 1.62 ± 0.21 |
| D30Y | -0.0227 ± 0.33 |
| A153L | 0.0918 ± 0.087 |
| A153Y | -0.0988 ± 0.073 |
| A397M | 1.62 ± 0.2 |
| A397E | 1.44 ± 0.2 |
| E145D | 1.11 ± 0.28 |
| P38V | 1.01 ± 0.095 |

| Variant | STK11 functional score |
| --- | --- |
| P38Q | 1.58 ± 0.15 |
| E342Y | 1.38 ± 0.12 |
| Y156L | 1.34 ± 0.24 |
| Y156E | 1.15 ± 0.36 |
| K84V | 0.24 ± 0.085 |
| F366E | 1.6 ± 0.14 |
| E256C | 0.541 ± 0.33 |
| V390H | 0.912 ± 0.65 |
| S378Q | 0.786 ± 0.15 |
| N181C | -0.0246 ± 0.18 |
| S232M | 0.515 ± 0.49 |
| R39W | 1.22 ± 0.49 |
| N226T | 1.26 ± 0.12 |
| N226R | 1.51 ± 0.2 |
| S325R | 1.58 ± 0.2 |
| P144T | 1.18 ± 0.2 |
| A316M | 1 ± 0.69 |
| Q364T | 1.46 ± 0.14 |
| Q364R | 1.1 ± 0.27 |
| P339L | 0.979 ± 0.25 |
| A43R | 1.64 ± 0.26 |
| A43Q | -0.492 ± 0.15 |
| P280M | 1.04 ± 0.38 |
| P280W | 0.665 ± 0.16 |

| Variant | STK11 functional score |
| --- | --- |
| A218S | 1.09 ± 0.17 |
| P89D | 0.0497 ± 0.083 |
| M51Y | 1.62 ± 0.27 |
| M51P | 1.66 ± 0.35 |
| T402L | 1.23 ± 0.27 |
| D208M | 1.7 ± 0.38 |
| L55W | 0.491 ± 0.13 |
| L55F | -0.181 ± 0.15 |
| V243Q | 1.19 ± 0.52 |
| G394I | 1.51 ± 0.21 |
| V34R | 0.822 ± 0.17 |
| V34D | 0.585 ± 0.37 |
| I46R | 0.979 ± 0.36 |
| G135I | 1.69 ± 0.39 |
| E92V | 1.02 ± 0.09 |
| N247I | 1.16 ± 0.15 |
| M335C | 1.36 ± 0.15 |
| M335R | 1.46 ± 0.3 |
| D162T | 1.4 ± 0.28 |
| E396W | 1.49 ± 0.21 |
| E396L | 1.14 ± 0.28 |
| D141E | 0.883 ± 0.17 |
| V20G | 1.43 ± 0.12 |
